Measured values taken from patent US20200239586A1 (LA TROBE UNIVERSITY, published 2020).

T1: synthetic peptide Sub-domain 2 Cys 4&5 ΔS (human, not fully specified; biotin on the added C-terminal lysine)
T1 construct: also called sub-domain 2 cys4&5ΔS mutant
T1 peptide: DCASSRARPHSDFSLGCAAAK


Legend:
[1] = molecular target: T2, Histidine tagged hFn14 extracellular domain, bacterially expressed (human, UniProt Q9NP84 28-77); experiment: SPR (ProteOn XPR36), mAb coupled to chip, His-tagged hFn14 analyte, Langmuir 1:1 fit
T2 construct: also called recombinant Fn14; recombinant human Fn14; not shown: (His)6 tag from pET-15b
Protocol: The kinetic analysis of the monoclonal antibodies was performed on a ProteOn XPR36 system (BioRad) Laboratories) essentially according to the protocol from Nahshol et al (2008). Monoclonal antibodies against hFn14 (50 μg/ml) were covalently coupled to a GMC chip. Analytes were a serial dilution of bacterially expressed and purified Histidine tagged hFn14. The binding sensorgrams were collected, processed and analyzed using the integrated ProteOn Manager software (BioRad Laboratories). Binding curves were fitted using the Langmuir model describing 1:1 binding stoichiometry.
Binding kinetics of anti-Fn14 antibodies CRCBT-06-001, CRCBT-06-002, CRCBT-06-004, ITEM-1 and ITEM-4 were assessed as described herein and results are set out in Table 4.

[2] = molecular target: T3, His tagged hFn14 extracellular region mutant R56K (human, UniProt Q9NP84 28-77); experiment: ELISA with purified His-tagged hFn14 R56K; x axis 'Log (c)' without unit, µg/ml by the legend
T3 construct: not shown: (His)6 tag

[3] = molecular target: T1, synthetic peptide Sub-domain 2 Cys 4&5 …; experiment: peptide ELISA: biotinylated synthetic peptide on neutravidin plate, antibody titrated (legend: 1-0.0001 µg/ml; axis 'Log (c)'), anti-mouse HRP, TMB, OD 450 nm
[4] = molecular target: phage expressed hFn14 mutant L65A (human, UniProt Q9NP84 28-77); experiment: phage ELISA (Method 2): antibody coated on the plate, 10-fold dilutions of phage displaying hFn14 L65A; biotin anti-M13 antibody, streptavidin-HRP, TMB, OD 450 nm; x axis = dilution of phage
Description: (§1) For mutants P59A and F63A, binding was detected using HRP-conjugated anti-M13-phage polyclonal IgG and TMB substrate. For all other mutants binding was detected using Biotin-conjugated anti-M13-phage monoclonal antibody followed by HRP-conjugated Streptavidin and TMB substrate. Optical density at 450 nm was quantified using a Spectramax spectrophotometer. Error bars for each dilution represent the standard deviation of duplicate assays. FIG. 27A wild type Fn14, FIG. 27B W42A, FIG. 27C S54A, FIG. 27D A57G, FIG. 27E P59A, FIG. 27F S61A, FIG. 27G F63A, FIG. 27H L65A. In all cases error bars represent the standard deviation. X axis=dilution of phage. Methods according to Epitope mapping using phage expressed Fn14—Method 2
(§2) The wells of Maxisorp immunoplates (Nunc) were coated overnight at 4° C. with the target monoclonal antibodies or recombinant Tweak-Fc at a concentration of 1.5 μg/ml in PBS. mAb 5G8 was used as a negative control for ELISA plates coated with tested antibodies. […] 10-fold serial dilutions of phage were made using PBS solution and phage dilutions were added to the coated, blocked ELISA plates for 1 hour, shaking at room temperature. Phage was subsequently removed from the wells and the ELISA plates were washed three times with PBS/0.05% Tween 20. […]

[5] = molecular target: phage expressed hFn14 mutant H60K (human, UniProt Q9NP84 28-77); experiment: phage ELISA (Method 2): antibody coated on the plate, 10-fold dilutions of phage displaying hFn14 H60K; biotin anti-M13 antibody, streptavidin-HRP, TMB, OD 450 nm; x axis = dilution of phage
Sequence of phage expressed hFn14 mutant H60K (Q9NP84 28-77 H60K): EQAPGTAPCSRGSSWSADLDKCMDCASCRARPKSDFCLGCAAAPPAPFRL
Protocol: ELISAs showing the reactivity of mutant H60A and H60K hFn14 phage constructs with the anti-Fn14 monoclonal antibodies CRCBT-06-001, CRCBT-06-002, CRCBT-06-004 compared to ITEM-1 and ITEM-4. ITEM-2 was assessed on H60K. Binding was detected using Biotin-conjugated anti-M13-phage monoclonal antibody followed by HRP-conjugated Streptavidin and TMB substrate. Optical density at 450 nm was quantified using a Spectramax spectrophotometer. Error bars for each dilution represent the standard deviation of duplicate assays. X axis=dilution of phage. Methods according to Epitope mapping using phage expressed Fn14—Method 2.
The wells of Maxisorp immunoplates (Nunc) were coated overnight at 4° C. with the target monoclonal antibodies or recombinant Tweak-Fc at a concentration of 1.5 μg/ml in PBS. mAb 5G8 was used as a negative control for ELISA plates coated with tested antibodies. […] 10-fold serial dilutions of phage were made using PBS solution and phage dilutions were added to the coated, blocked ELISA plates for 1 hour, shaking at room temperature. Phage was subsequently removed from the wells and the ELISA plates were washed three times with PBS/0.05% Tween 20.
Method A: HRP-conjugated anti-M13-phage antibody (GE Healthcare) at a 1/5000 dilution in PBS was then added to the wells of the ELISA plates for 1 hour, shaking at room temperature. […]

[6] = molecular target: phage expressed hFn14 mutant F63A (human, UniProt Q9NP84 28-77); experiment: phage ELISA (Method 2): antibody coated on the plate, 10-fold dilutions of phage displaying hFn14 F63A; HRP-conjugated anti-M13 phage polyclonal IgG, TMB, OD 450 nm; x axis = dilution of phage
Description: as §1, §2

| Kd [1] [nM] | koff [1] [s⁻¹] | kon [1] [M⁻¹ s⁻¹] | binding result [2] | binding result [3] | binding result [4] | binding result [5] | binding result [6] | Binder |
| --- | --- | --- | --- | --- | --- | --- | --- | --- |
| 0.198 | 2.59e-05 | 131000 | binds | binds | binds | binds | binds | CRCBT-06-002 (antibody, IgG1, V domains shown) VH: EVKLQQSGGGLVQPGGSMKLSCVASGFTFSYYWMNWVRQSPEQGLEWIAEIRLQSNDYPTHYAESVKGRFTISRDDSKNSVYLQMNNLRPEDTGIYYCACRYADYFDHWGQGTTLTVSS VL: DTVLTQSPASLVVSLGQRATISCRASQSVSTSDYSYIHWYQQKPGQPPKFLIKYASNRDSGVPARFSGSGSGTDFTLNIHPVEEDDTAIYYCQHSWEIPPTFGAGTKLELQR |
| 0.55 | 0.000102 | 186000 | binds | binds | binds | binds | binds | CRCBT-06-001 (antibody, IgG2b, V domains shown) VH: QVQLQQSGGGLVQPGGSMKLSCIASGFTFSSYWMSWVRQSPEKGLEWVAEIRSKSDNYATHYAESVKGKFTISRDDSKSRFFLQMNNLRAEDTGIYYCSSTYADYFHYWGQGTDLTVSS VL: DIVMTQTPASLAVSLGQRATISCRASQSVSTSTYSYMHWYQQKPGQPPKLLIKYASSLESGVPARFSGSGSGTDFTLNIHPVEEDDTATYYCQHSWEIPYTFGGGTKLEIKR |
